± gives the uncertainty stated by the source.
Test: self-splicing fitness, log relative to wild type (ln ratio); higher = more splicing; Tetrahymena group I intron in knt gene, E. coli kanamycin selection, DiMSum; sequences stand for … in CUCUCU…GGAGGGAAAAGUUAUCAGGCAUGCACCUGGUAGCUAGUCUUUAAACCAAUAGAUUGCAUCGGUUUAAAAGGCAAGACCGUCAAAUUGCGGGAAAGGGGUCAACAGCCGUUCAGUACCAAGUCUCAGGGGAAACUUUGAGAUGGCCUUGCAAAGGGUAUGGUAAUAAGCUGACGGACAUGGUCCUAACCACGCAGCCAAGUCCUAAGUCAACAGAUCUUCUGUUGAUAUGGAUGCAGUUCACAGACUAAAUGUCGGUCGGGGAAGAUGUAUUCUUCUCAUAAGAUAUAGUCGGACCUCUCCUUAAUGGGAGCUAGCGGAUGAAGUGAUGCAACACUGGAGCCGCUGGGAACUAAUUUGUAUGCGAAAGUAUAUUGAUUAGUUUUGGAGUACUCGUGGUCG
Summary of the method: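 Colonies from six replicate transformations of E. coli BL21(DE3) were pooled and amplicon-sequenced on an Illumina HiSeq 2500. The library placed an intron with all eight P1ex-region nucleotides randomised inside the knt kanamycin-resistance gene on pET-22b(+), and cells grew overnight at 37°C or 30°C on LB agar with or without 25 μg/mL kanamycin (plus 100 μg/mL carbenicillin, 50 μM IPTG, 0.2% rhamnose). Fitness is the DiMSum error-weighted combination of wild-type-normalised replicate fold changes, kanamycin versus none.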

Sequence | self-splicing fitness (ln) (30 °C) | self-splicing fitness (ln) (37 °C)
CUGUAGCAAUAUUACGUUUC | -3.58 ± 0.19 | -2.99 ± 0.32
GUCAAGCAAUAUUACGUAAU | -0.836 ± 0.044 | -0.385 ± 0.061
CGGUAGCAAUAUUACGUUCU | -0.482 ± 0.087 | -0.439 ± 0.1
CGAAAGCAAUAUUACGACCA | -1.24 ± 0.14 | -1.24 ± 0.15
CAUUAGCAAUAUUACGGCCU | -3.52 ± 0.18 | -2.21 ± 0.21
CGCCAGCAAUAUUACGUCUG | -2.97 ± 0.18 | -0.917 ± 0.13
CGUCAGCAAUAUUACGCUCC | -1.3 ± 0.15 | -0.786 ± 0.22
CAGGAGCAAUAUUACGAGGA | -3.55 ± 0.25 | -3.69 ± 0.29
AACGAGCAAUAUUACGGAUA | -2.98 ± 0.22 | -1.85 ± 0.29
UAGCAGCAAUAUUACGUAAU | -3.27 ± 0.12 | -0.695 ± 0.089
UUCUAGCAAUAUUACGGUGC | -2.46 ± 0.4 | -2.96 ± 0.38
UCGGAGCAAUAUUACGAAGG | -2.58 ± 0.45 | 
AAGUAGCAAUAUUACGCUAA | -1.81 ± 0.14 | -0.343 ± 0.15
UACGAGCAAUAUUACGCCUU | -3.54 ± 0.43 | 
UGUUAGCAAUAUUACGUGUA | -2.88 ± 0.16 | -0.349 ± 0.1
UUCGAGCAAUAUUACGCUCG | -1.64 ± 0.25 | -3.36 ± 0.42
AUCCAGCAAUAUUACGGGCA | -0.0628 ± 0.073 | -0.507 ± 0.083
GUGGAGCAAUAUUACGGUGA |  | -1.81 ± 0.49
AGGGAGCAAUAUUACGAACA | -3.22 ± 0.45 | -1.72 ± 0.31
CCCCAGCAAUAUUACGCACC | -2.46 ± 0.18 | -2.32 ± 0.24

Sequence | self-splicing fitness (ln) (30 °C) | self-splicing fitness (ln) (37 °C)
UAUAAGCAAUAUUACGACUU | -0.386 ± 0.13 | -0.681 ± 0.13
ACGGAGCAAUAUUACGAUUC | -2.11 ± 0.32 | 
UUGCAGCAAUAUUACGACAC | -1.37 ± 0.19 | -1.22 ± 0.47
CUCCAGCAAUAUUACGCUAC | -4.08 ± 0.29 | -2.75 ± 0.23
GUGCAGCAAUAUUACGUGAC | -1.86 ± 0.14 | -1.33 ± 0.14
GCAAAGCAAUAUUACGGCUC | -0.596 ± 0.062 | 0.305 ± 0.081
UUCCAGCAAUAUUACGAUUG | -2.03 ± 0.12 | -1.47 ± 0.16
UAAAAGCAAUAUUACGACGC | -2.67 ± 0.18 | -0.32 ± 0.15
GACCAGCAAUAUUACGGCCG | -0.246 ± 0.063 | 0.158 ± 0.093
ACAAAGCAAUAUUACGUAGC | -2.35 ± 0.086 | -2.01 ± 0.12
CUAGAGCAAUAUUACGGAGA | -2.51 ± 0.26 | -2.51 ± 0.48
CGGUAGCAAUAUUACGCGUU | -3.55 ± 0.31 | -2.13 ± 0.21
UAUGAGCAAUAUUACGCGGA | -2.39 ± 0.25 | -1.69 ± 0.24
GUGGAGCAAUAUUACGAACG | -2.43 ± 0.43 | -1.53 ± 0.41
CAAUAGCAAUAUUACGCCAG | -1.21 ± 0.12 | -0.652 ± 0.15
CCACAGCAAUAUUACGAUGC | -3.7 ± 0.17 | -2.66 ± 0.21
UUGGAGCAAUAUUACGUAUA | -2.08 ± 0.44 | 
UAAGAGCAAUAUUACGCGUU |  | -2.04 ± 0.33
ACUUAGCAAUAUUACGUUUG | -3.01 ± 0.12 | -2.09 ± 0.16
UUUGAGCAAUAUUACGGAAC | -1.63 ± 0.16 | -1.2 ± 0.24

Reference: the supplement of paper PMC7877785
